Residue numbers refer to the chain shown, from its start. Names may count otherwise.

The results in this text go back to US20060051832A1, “Modified sarcosine oxidase, process for producing the same and reagent composition using the same” (Toyo Boseki Kabushiki Kaisha, priority 2002, published 2006).

Data set [1] concerns Arthrobacter sp. TE1826 modified sarcosine oxidases of Example 3B (SEQ ID NO:1 variants). Briefly: Km of modified sarcosine oxidases of Example 3B compared with unmodified. Conditions: modified vs unmodified; nearly equal to or within 1.5 times. The format is biochemical. Here is the method: (§1) • 100 mM Tris-HCl buffer (pH 8.0) (containing 200 mM sarcosine and 0.1% Triton X-100) • 0.1% 4-aminoantipyrine • 0.1% phenol • 25 U/mL peroxidase <Measurement Condition>
(§2) A reaction mixture is prepared by mixing the above Tris-HCl buffer, 4-aminoantipyrine solution, phenol solution and peroxidase solution at a ratio of 5:1:2:2. The reaction mixture (1 mL) is taken to a test tube, preliminarily warmed at 37° C. for about 5 min, and 0.05 mL of an enzyme solution is added to start the reaction. The reaction at 37° C. is performed accurately for 10 min, then 2.0 mL of an aqueous solution of 0.25% SDS is added to stop the reaction, and an absorbance at 500 nm of this solution is measured. In a blind test, distilled water instead of the enzyme solution is added to the reagent mixture, and the same manipulation is followed to measure the absorbance. […] The reactivity to proline was measured as a relative ratio of activities when sarcosine in the above reagent was replaced by L-proline at the same concentration.
(§3) Various sarcosine oxidases obtained in Example 3B and Comparative Example 1 were evaluated.
(§4) Action on proline was calculated from a relative ratio (%) of the enzyme activity using L-proline as the substrate to the enzyme activity suing sarcosine as the substrate in the above activity measurement method. […]

Substrate in data set [2]: CNCC(=O)O
Briefly: Km of modified sarcosine oxidase SAOM5B. The format is biochemical, Arthrobacter sp. TE1826. The following applies: other: SAOM5B, 37° C., pH 8.0. The procedure: as §1
as §2, with “concentration. […]” for “concentration.”
as §3, §4

Substrate in data set [3]: CNCC(=O)O
Briefly: Km of modified sarcosine oxidase SAOM6B. It counts as biochemical, Arthrobacter sp. TE1826. Conditions: other: SAOM6B, 37° C., pH 8.0. The procedure:
as §1
as §2, with “concentration. […]” for “concentration.”
as §3, §4

Substrate in data set [4]: CNCC(=O)O
Briefly: Km of modified sarcosine oxidase SAOM2B. The format is biochemical, Arthrobacter sp. TE1826. Conditions: other: SAOM2B, V94G, 37° C., pH 8.0. The procedure: as §1
as §2, with “concentration. […]” for “concentration.”
as §3, §4

Substrate in data set [5]: CNCC(=O)O
Briefly: Km of modified sarcosine oxidase SAOM3B. The following applies: other: SAOM3B, K322R, 37° C., pH 8.0. The format is biochemical, Arthrobacter sp. TE1826. Here is the method:
as §1
as §2, with “concentration. […]” for “concentration.”
as §3, §4

Substrate in data set [6]: CNCC(=O)O
Briefly: Km of modified sarcosine oxidase SAOM7B. It counts as biochemical, Arthrobacter sp. TE1826. The following applies: other: SAOM7B, 37° C., pH 8.0. Here is the method:
as §1
as §2, with “concentration. […]” for “concentration.”
as §3, §4

Substrate in data set [7]: CNCC(=O)O
Briefly: Km of modified sarcosine oxidase SAOM1B. It counts as biochemical, Arthrobacter sp. TE1826. The following applies: other: SAOM1B, K89R, 37° C., pH 8.0. The procedure: as §1
as §2, with “concentration. […]” for “concentration.”
as §3, §4

Substrate in data set [8]: CNCC(=O)O
Briefly: Km of unmodified sarcosine oxidase (control, Comparative Example 1). It counts as biochemical, Arthrobacter sp. TE1826. Conditions: other: unmodified (control), 37° C., pH 8.0. The procedure: as §1
as §2, with “concentration. […]” for “concentration.”
as §3, §4

Substrate in data set [9]: CNCC(=O)O
Briefly: Km of modified sarcosine oxidase SAOM8B. It counts as biochemical, Arthrobacter sp. TE1826. Conditions: other: SAOM8B, 37° C., pH 8.0. The procedure: as §1
as §2, with “concentration. […]” for “concentration.”
as §3, §4

Substrate in data set [10]: CNCC(=O)O
Briefly: Km of modified sarcosine oxidase SAOM4B. It counts as biochemical, Arthrobacter sp. TE1826. The following applies: other: SAOM4B, 37° C., pH 8.0. The procedure:
as §1
as §2, with “concentration. […]” for “concentration.”
as §3, §4

Take `CNCC(=O)O` [sarcosine]: in [1], the “Km value for sarcosine relative to the Km value of the unmodified sarcosine oxidase” value is on record as at most 1.5 times.

B1: Arthrobacter sp. TE1826 sarcosine oxidase (SEQ ID NO:1) variant SAOM5B, V94G, E250Q, K89R (Arthrobacter sp. TE1826; E250Q/K89R/V94G) (protein)
chain: MSIKKDYDVIVVGAGSMGMAAGYYLSKQGVKTLLVDSFHPPHTNGSHHGDTRIIRHAYGEGREYVPFALRAQELWYELEKETHHKIFTRTGVLGFGPKGEAPFVAETMEAAKEHSLDVDLLEGSEINKRWPGVTVPENYNAIFEKNSGVLFSENCIRAYRELAEANGAKVLTYTPVEDFEIAEDFVKIQTAYGSFTASKLIVSMGAWNSKLLSKLNIEIPLQPYRQVVGFFECDEKKYSNTHGYPAFMVQVPTGIYYGFPSFGGCGLKIGYHTYGQKIDPDTINREFGIYPEDEGNIRKFLETYMPGATGELKSGDVCMYTKTPDEHFVIDLHPQFSNVAIAAGFSGHGFKFSSVVGETLSQLAVTGKTEHDISIFSINRPALKQKETI
Consider B1, for which, in data set [2], the Km worked out at 3.3 mM mM.

B2: Arthrobacter sp. TE1826 sarcosine oxidase (SEQ ID NO:1) variant SAOM6B, K89R, V94G, S213P, E250Q (Arthrobacter sp. TE1826; E250Q/K89R/S213P/V94G) (protein)
chain: B1 chain with S213P
B2: the Km in data set [3] stood at 3.5 mM mM.

B3: Arthrobacter sp. TE1826 sarcosine oxidase (SEQ ID NO:1) variant SAOM2B, V94G (Arthrobacter sp. TE1826; V94G) (protein)
chain: B1 chain with R89K, Q250E
B3: in data set [4], the Km turned out to be 4.1 mM mM.

B4: Arthrobacter sp. TE1826 sarcosine oxidase (SEQ ID NO:1) variant SAOM3B, K322R (Arthrobacter sp. TE1826; K322R) (protein)
chain: B1 chain with R89K, G94V, Q250E, K322R
Turning to B4, in [5], the Km is listed as 4.7 mM mM.

B5: Arthrobacter sp. TE1826 sarcosine oxidase (SEQ ID NO:1) variant SAOM7B, K89R, V94G, M204A, S213P, E250Q (Arthrobacter sp. TE1826; E250Q/K89R/M204A/S213P/V94G) (protein)
chain: B1 chain with M204A, S213P
B5: the Km in [6] is 3.4 mM mM.

B6: Arthrobacter sp. TE1826 sarcosine oxidase (SEQ ID NO:1) variant SAOM1B, K89R (Arthrobacter sp. TE1826; K89R) (protein)
chain: B1 chain with G94V, Q250E
Take B6: in data set [7], the Km is on record as 3.4 mM mM.

B7: Arthrobacter sp. TE1826 sarcosine oxidase, wild type (unmodified), SEQ ID NO:1 (Arthrobacter sp. TE1826) (protein)
chain: B1 chain with R89K, G94V, Q250E
Regarding B7, the Km in data set [8] was found to be 3.4 mM mM.

B8: Arthrobacter sp. TE1826 sarcosine oxidase (SEQ ID NO:1) variant SAOM8B, K89R, V94G, N166K, M204A, S213P, E250Q (Arthrobacter sp. TE1826; … (protein)
chain: B1 chain with N166K, M204A, S213P
In the case of B8, the Km in data set [9] is reported as 3.4 mM mM.

B9: Arthrobacter sp. TE1826 sarcosine oxidase (SEQ ID NO:1) variant SAOM4B, V94G, E250Q (Arthrobacter sp. TE1826; E250Q/V94G) (protein)
chain: B1 chain with R89K
Regarding B9, in data set [10], the Km was 3.4 mM mM.
